# Results published in paper PMC9769368 (2022).
# T1: AAVGo.1 virus-like particles (goat adeno-associated virus capsid, without DNA genome) (goat adeno-associated virus AAVGo.1)
# T1 chain 1: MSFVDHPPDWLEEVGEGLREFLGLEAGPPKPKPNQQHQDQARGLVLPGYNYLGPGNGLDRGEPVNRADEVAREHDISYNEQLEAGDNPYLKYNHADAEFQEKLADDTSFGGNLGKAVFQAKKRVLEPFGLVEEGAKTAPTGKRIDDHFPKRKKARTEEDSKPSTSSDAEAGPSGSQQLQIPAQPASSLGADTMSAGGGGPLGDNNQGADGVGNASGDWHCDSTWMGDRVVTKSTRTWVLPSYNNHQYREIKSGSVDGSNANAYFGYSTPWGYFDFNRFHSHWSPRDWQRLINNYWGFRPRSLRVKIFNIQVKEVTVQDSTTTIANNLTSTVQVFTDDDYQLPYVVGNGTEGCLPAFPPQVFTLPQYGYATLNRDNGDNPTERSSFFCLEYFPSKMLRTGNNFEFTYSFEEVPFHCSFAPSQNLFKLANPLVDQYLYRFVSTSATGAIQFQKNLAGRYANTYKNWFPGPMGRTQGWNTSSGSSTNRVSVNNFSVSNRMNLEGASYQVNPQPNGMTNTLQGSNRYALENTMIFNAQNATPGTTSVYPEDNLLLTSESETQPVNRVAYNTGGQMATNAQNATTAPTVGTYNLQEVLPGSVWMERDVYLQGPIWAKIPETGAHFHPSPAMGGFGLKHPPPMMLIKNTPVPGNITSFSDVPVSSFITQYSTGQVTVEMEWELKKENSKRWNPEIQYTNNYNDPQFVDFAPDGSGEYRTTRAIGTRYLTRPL
# T1 chain 2: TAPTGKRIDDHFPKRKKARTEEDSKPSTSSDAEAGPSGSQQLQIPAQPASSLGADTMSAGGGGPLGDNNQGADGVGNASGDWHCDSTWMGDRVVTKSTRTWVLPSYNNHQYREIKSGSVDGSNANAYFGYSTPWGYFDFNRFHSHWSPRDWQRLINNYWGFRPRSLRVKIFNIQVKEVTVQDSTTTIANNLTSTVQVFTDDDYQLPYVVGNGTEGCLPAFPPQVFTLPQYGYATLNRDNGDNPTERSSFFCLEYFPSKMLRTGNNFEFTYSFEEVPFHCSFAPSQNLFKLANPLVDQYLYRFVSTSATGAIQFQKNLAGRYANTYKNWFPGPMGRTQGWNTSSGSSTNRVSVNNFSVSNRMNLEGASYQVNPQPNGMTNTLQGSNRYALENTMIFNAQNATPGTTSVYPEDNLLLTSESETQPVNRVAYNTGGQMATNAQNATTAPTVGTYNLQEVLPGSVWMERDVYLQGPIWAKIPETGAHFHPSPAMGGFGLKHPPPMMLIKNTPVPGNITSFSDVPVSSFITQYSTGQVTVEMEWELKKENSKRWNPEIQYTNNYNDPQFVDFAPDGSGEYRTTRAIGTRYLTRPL
# T1 chain 3: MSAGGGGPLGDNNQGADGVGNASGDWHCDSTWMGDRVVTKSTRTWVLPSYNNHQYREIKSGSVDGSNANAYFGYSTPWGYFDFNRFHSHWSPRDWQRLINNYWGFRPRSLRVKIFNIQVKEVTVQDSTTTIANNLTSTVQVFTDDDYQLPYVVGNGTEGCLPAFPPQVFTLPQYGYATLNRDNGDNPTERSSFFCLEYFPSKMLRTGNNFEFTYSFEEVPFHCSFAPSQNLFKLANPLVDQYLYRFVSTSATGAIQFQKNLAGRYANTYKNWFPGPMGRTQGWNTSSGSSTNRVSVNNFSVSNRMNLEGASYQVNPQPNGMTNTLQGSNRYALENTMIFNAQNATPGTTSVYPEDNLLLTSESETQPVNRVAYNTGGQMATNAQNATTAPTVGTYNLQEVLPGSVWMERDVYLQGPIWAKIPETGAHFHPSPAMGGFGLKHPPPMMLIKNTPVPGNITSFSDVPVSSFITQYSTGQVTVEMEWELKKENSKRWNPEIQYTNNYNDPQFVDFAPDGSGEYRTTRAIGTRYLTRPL
# Key:
# Test in all cases: ELISA
# [1] = target: T1, AAVGo.1 virus-like particles (goat …)
# [2] = target: AAV5 virus-like particles (adeno-associated virus 5, UniProt Q9YIJ1 2-724)
# [3] = target: AAV2 virus-like particles (adeno-associated virus 2)
Binder,EC50 [1] [nM],EC50 [2] [nM],EC50 [3] [nM]
"His6PKD1, fragment of human AAV receptor (AAVR) with PKD domain 1 (domain or fragment) SAGESVQITLPKNEVQLNAYVLQEPPKGETYTYDWQLITHPRDYSGEMEGKHSQILKLSKLTPGLYEFKVIVEGQNAHGEGYVNVTVKPE",140,400,–
"His6PKD12, fragment of human AAV receptor (AAVR) with PKD domains 1 and 2 (domain or fragment) MASHHHHHHVSAGESVQITLPKNEVQLNAYVLQEPPKGETYTYDWQLITHPRDYSGEMEGKHSQILKLSKLTPGLYEFKVIVEGQNAHGEGYVNVTVKPEPRKNRPPIAIVSPQFQEISLPTTSTVIDGSQSTDDDKIVQYHWEELKGPLREEKISEDTAILKLSKLVPGNYTFSLTVVDSDGATNSTTANLTVNKAVD",120,280,340
